From paper PMC4155686, “Oleoyl Coenzyme A Regulates Interaction of Transcriptional Regulator RaaS (Rv1219c) with DNA in Mycobacteria*” (The Journal of Biological Chemistry, 2014)

T1: RaaS wild type (Mycobacterium tuberculosis, UniProt O86312 1-212)
T1 sequence: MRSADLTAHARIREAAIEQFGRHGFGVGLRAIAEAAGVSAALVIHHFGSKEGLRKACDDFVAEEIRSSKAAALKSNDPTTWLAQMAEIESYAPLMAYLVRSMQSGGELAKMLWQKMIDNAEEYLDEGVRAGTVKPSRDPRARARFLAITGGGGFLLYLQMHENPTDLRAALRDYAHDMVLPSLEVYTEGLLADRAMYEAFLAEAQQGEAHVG


What was measured:
[1] = target: the molecule itself; experiment: small-angle X-ray scattering; protein alone in solution at 1 and 3 mg/ml, data extrapolated to infinite dilution; apparent molecular mass from I(0)
RaaS wild type = target: T1, RaaS wild type; experiment: fluorescence anisotropy; 4 nM DNA; details: protein: recombinant; chain copies: 2

Row | Binder | stoichiometry N [1] | Kd (RaaS wild type) [nM]
1 | RaaS (regulator of antimicrobial-assisted survival), Rv1219c, wild type (natural protein, also called wild-type RaaS) MRSADLTAHARIREAAIEQFGRHGFGVGLRAIAEAAGVSAALVIHHFGSKEGLRKACDDFVAEEIRSSKAAALKSNDPTTWLAQMAEIESYAPLMAYLVRSMQSGGELAKMLWQKMIDNAEEYLDEGVRAGTVKPSRDPRARARFLAITGGGGFLLYLQMHENPTDLRAALRDYAHDMVLPSLEVYTEGLLADRAMYEAFLAEAQQGEAHVG | 2 | 
2 | Pr14F/Pr14R (ATTO 647N) (dsDNA) DNA 1: GGGATGAACGTACGTTTAATATCCTGAACATGCGTTCAG DNA 2: GGGCTGAACGCATGTTCAGGATATTAAACGTACGTTCAT |  | 31 ± 6
